Source: patent US20210253724A1 (Hoffmann-La Roche, published 2021)

Assays:
[1] = target: T1, human 4-1BB (CD137) on Jurkat-hu4-1BB-NFκB-luc2 reporter cells (human, UniProt Q07011 24-255); test: cell-based or functional assay
[2] = target: T2, human 4-1BB Fc(kih) (human, UniProt P01857 104-328 = IgG part); test: SPR (Biacore T200), human 4-1BB-Fc(kih) amine-coupled on a CM5 chip, antibody 150 nM as analyte 1
T2 construct: Monomeric Fc-linked antigen: 4-1BB ectodomain, AcTEV site, Fc knob and Avi tag, paired with an Fc hole chain; also called hu4-1BB-Fc(kih); human 4-1BB antigen Fc knob chain with Fc hole chain
T2 sequence (P01857 other isoform, or with tags, fused parts or gaps limits assumed): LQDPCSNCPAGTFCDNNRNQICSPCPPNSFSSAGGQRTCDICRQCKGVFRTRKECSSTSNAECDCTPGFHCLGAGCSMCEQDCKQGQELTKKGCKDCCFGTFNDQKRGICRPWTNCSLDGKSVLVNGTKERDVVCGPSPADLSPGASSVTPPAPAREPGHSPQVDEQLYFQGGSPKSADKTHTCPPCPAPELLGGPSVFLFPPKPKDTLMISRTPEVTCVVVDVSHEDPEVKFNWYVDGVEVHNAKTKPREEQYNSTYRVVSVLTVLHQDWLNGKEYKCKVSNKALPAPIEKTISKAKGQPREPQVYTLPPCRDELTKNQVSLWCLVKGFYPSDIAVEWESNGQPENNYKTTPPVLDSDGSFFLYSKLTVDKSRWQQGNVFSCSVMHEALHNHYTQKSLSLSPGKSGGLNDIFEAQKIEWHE
Procedure: All SPR experiments were performed on a Biacore T200 at 25° C. with HBS-EP as running buffer (0.01 M HEPES pH 7.4, 0.15 M NaCl, 3 mM EDTA, 0.005% Surfactant P20, Biacore, Freiburg/Germany). […] Immobilization level of approx. 900 RU was used.
The dissociation was monitored for 240 sec. Bulk refractive index differences were corrected for by subtracting the response obtained in a reference flow cell, where no protein was immobilized.

[3] = target: T3, human FAP on NIH/3T3-huFAP clone 19 cells (human, UniProt Q12884 1-760); test: flow cytometry on NIH/3T3-huFAP clone 19 cells
T3 construct: NIH/3T3 cells transfected with a plasmid encoding human FAP
Procedure: (§1) Plates were incubated for 30 minutes at 4° C. and washed once with 200 μL 4° C. cold DPBS buffer. […] Cells were washed twice with 200 μL 4° C. DPBS buffer and then resuspended in 50 μL/well DPBS containing 1% Formaldehyde for fixation. The same or the next day cells were resuspended in 100 μL FACS-buffer and acquired using MACSQuant Analyzer 10 (Miltenyi Biotec).

[4] = target: T3, human FAP on NIH/3T3-huFAP clone 19 …; test: flow cytometry on NIH/3T3-huFAP clone 19 cells; remark: listed apart in the source
Procedure: as §1

[5] = target: T1, human 4-1BB (CD137) on …; test: cell-based or functional assay; remark: listed apart in the source
[6] = target: T4, hu4-1BB-SNAP Tb-labeled expressed on transfected Hek cells (human, UniProt Q07011 24-255, Tb (terbium) label on the SNAP tag); test: TR-FRET (TagLite) competition against d2-labeled 20H4.9 IgG1 (0.6 nM), after 4 h
T4 construct: SNAP-tag fusion of human 4-1BB; also called Tb hu4-1BB-SNAP

[7] = target: T1, human 4-1BB (CD137) on …; test: cell-based or functional assay; set-up: AUC of NFκB-luciferase activation curve, no FAP+ cells / AUC of NFκB-luciferase activation curve, with WM-266-4 cells: unit not given beside the values

EC50 of NFκB-luciferase activation curve, with MKN45-huPD-L1 cells [1] [nM]	binding result [2]	AUC [3]	EC50 [4] [nM]	EC50 of NFκB-luciferase activation curve, with NIH/3T3-huFAP clone 19 cells [5] [nM]	EC50 of NFκB-luciferase activation curve, with WM-266-4 cells [5] [nM]	IC50 [6] [nM]	AUC of NFκB-luciferase activation curve, no FAP+ cells [7]	AUC of NFκB-luciferase activation curve, with NIH/3T3-huFAP clone 19 cells [7]	AUC of NFκB-luciferase activation curve, with WM-266-4 cells [7]	Binder
0.1	binds									1+1 4-1BB (20H4.9)/PD-L1 human IgG1 PGLALA (bispecific antibody, Monovalent for 4-1BB and for PD-L1; also called 1+1 anti-4-1BB (20H4.9)×anti-PD-L1 huIgG1 P329GLALA; 1+1 H2H 4-1BB (20H4.9)/PD-L1 human IgG1 PGLALA) heavy 1: QVQLQQWGAGLLKPSETLSLTCAVYGGSFSGYYWSWIRQSPEKGLEWIGEINHGGYVTYNPSLESRVTISVDTSKNQFSLKLSSVTAADTAVYYCARDYGPGNYDWYFDLWGRGTLVTVSSASTKGPSVFPLAPSSKSTSGGTAALGCLVEDYFPEPVTVSWNSGALTSGVHTFPAVLQSSGLYSLSSVVTVPSSSLGTQTYICNVNHKPSNTKVDEKVEPKSCDKTHTCPPCPAPEAAGGPSVFLFPPKPKDTLMISRTPEVTCVVVDVSHEDPEVKFNWYVDGVEVHNAKTKPREEQYNSTYRVVSVLTVLHQDWLNGKEYKCKVSNKALGAPIEKTISKAKGQPREPQVCTLPPSRDELTKNQVSLSCAVKGFYPSDIAVEWESNGQPENNYKTTPPVLDSDGSFFLVSKLTVDKSRWQQGNVFSCSVMHEALHNHYTQKSLSLSP heavy 2: not shown light 1: not shown light 2: not shown
							181	195	191	Anti-FAP (4B9) huIgG1 P329GLALA (antibody, V domains shown) VH: EVQLLESGGGLVQPGGSLRLSCAASGFTFSSYAMSWVRQAPGKGLEWVSAIIGSGASTYYADSVKGRFTISRDNSKNTLYLQMNSLRAEDTAVYYCAKGWFGGFNYWGQGTLVTVSS VL: EIVLTQSPGTLSLSPGERATLSCRASQSVTSSYLAWYQQKPGQAPRLLINVGSRRATGIPDRFSGSGSGTDFTLTISRLEPEDFAVYYCQQGIMLPPTFGQGTKVEIK

More lines, now with the values behind:

Binder	EC50 of NFκB-luciferase activation curve, with MKN45-huPD-L1 cells [1] [nM]	binding result [2]	AUC [3]	EC50 [4] [nM]	EC50 of NFκB-luciferase activation curve, with NIH/3T3-huFAP clone 19 cells [5] [nM]	EC50 of NFκB-luciferase activation curve, with WM-266-4 cells [5] [nM]	IC50 [6] [nM]	AUC of NFκB-luciferase activation curve, no FAP+ cells [7]	AUC of NFκB-luciferase activation curve, with NIH/3T3-huFAP clone 19 cells [7]	AUC of NFκB-luciferase activation curve, with WM-266-4 cells [7]
2+1 H2H 4-1BB (20H4.9)/PD-L1 human IgG1 PGLALA (bispecific antibody) heavy 1: QVQLQQWGAGLLKPSETLSLTCAVYGGSFSGYYWSWIRQSPEKGLEWIGEINHGGYVTYNPSLESRVTISVDTSKNQFSLKLSSVTAADTAVYYCARDYGPGNYDWYFDLWGRGTLVTVSSASTKGPSVFPLAPSSKSTSGGTAALGCLVEDYFPEPVTVSWNSGALTSGVHTFPAVLQSSGLYSLSSVVTVPSSSLGTQTYICNVNHKPSNTKVDEKVEPKSCDKTHTCPPCPAPEAAGGPSVFLFPPKPKDTLMISRTPEVTCVVVDVSHEDPEVKFNWYVDGVEVHNAKTKPREEQYNSTYRVVSVLTVLHQDWLNGKEYKCKVSNKALGAPIEKTISKAKGQPREPQVCTLPPSRDELTKNQVSLSCAVKGFYPSDIAVEWESNGQPENNYKTTPPVLDSDGSFFLVSKLTVDKSRWQQGNVFSCSVMHEALHNHYTQKSLSLSP heavy 2: not shown light 1: not shown light 2: not shown	0.04									
4-1BB (20H4.9)/FAP (4B9) P329GLALA IgG1 2+1 VH/VL (C-terminal) (bispecific antibody, Control format: FAP VH and VL fused to the C-termini of the heavy chains; also called 2+1 VH/VL anti-4-1BB (20H4.9)×anti-FAP (4B9) huIgG1 P329GLALA; 2+1 (C-terminal)) heavy 1: QVQLQQWGAGLLKPSETLSLTCAVYGGSFSGYYWSWIRQSPEKGLEWIGEINHGGYVTYNPSLESRVTISVDTSKNQFSLKLSSVTAADTAVYYCARDYGPGNYDWYFDLWGRGTLVTVSSASTKGPSVFPLAPSSKSTSGGTAALGCLVKDYFPEPVTVSWNSGALTSGVHTFPAVLQSSGLYSLSSVVTVPSSSLGTQTYICNVNHKPSNTKVDKKVEPKSCDKTHTCPPCPAPEAAGGPSVFLFPPKPKDTLMISRTPEVTCVVVDVSHEDPEVKFNWYVDGVEVHNAKTKPREEQYNSTYRVVSVLTVLHQDWLNGKEYKCKVSNKALGAPIEKTISKAKGQPREPQVCTLPPSRDELTKNQVSLSCAVKGFYPSDIAVEWESNGQPENNYKTTPPVLDSDGSFFLVSKLTVDKSRWQQGNVFSCSVMHEALHNHYTQKSLSLSPGGGGGSGGGGSGGGGSGGGGSEVQLLESGGGLVQPGGSLRLSCAASGFTFSSYAMSWVRQAPGKGLEWVSAIIGSGASTYYADSVKGRFTISRDNSKNTLYLQMNSLRAEDTAVYYCAKGWFGGFNYWGQGTLVTVSS heavy 2: not shown light: not shown			21200	3.94	0.008	0.028	2.5	4360	95100	30900
